B1: Formin-binding protein 1 (Homo sapiens), Q96RU3 (parent)
chain: MSWGTELWDQFDNLEKHTQWGIDILEKYIKFVKERTEIELSYAKQLRNLSKKYQPKKNSKEEEEYKYTSCKAFISNLNEMNDYAGQHEVISENMASQIIVDLARYVQELKQERKSNFHDGRKAQQHIETCWKQLESSKRRFERDCKEADRAQQYFEKMDADINVTKADVEKARQQAQIRHQMAEDSKADYSSILQKFNHEQHEYYHTHIPNIFQKIQEMEERRIVRMGESMKTYAEVDRQVIPIIGKCLDGIVKAAESIDQKNDSQLVIEAYKSGFEPPGDIEFEDYTQPMKRTVSDNSLSNSRGEGKPDLKFGGKSKGKLWPFIKKNKLMSLLTSPHQPPPPPPASASPSAVPNGPQSPKQQKEPLSHRFNEFMTSKPKIHCFRSLKRGLSLKLGATPEDFSNLPPEQRRKKLQQKVDELNKEIQKEMDQRDAITKMKDVYLKNPQMGDPASLDHKLAEVSQNIEKLRVETQKFEAWLAEVEGRLPARSEQARRQSGLYDSQNPPTVNNCAQDRESPDGSYTEEQSQESEMKVLATDFDDEFDDEEPLPAIGTCKALYTFEGQNEGTISVVEGETLYVIEEDKGDGWTRIRRNEDEEGYVPTSYVEVCLDKNAKDS

Variants of: B1
Settings: with tnks1_human TNKS

Variant	effect of a mutation on the interaction
R515A;D519A	disrupting interaction
R515A	decreasing interaction

From IntAct's records for PubMed 14596906
